Test results from patent US20110143963A1.

Tests used:
[1] = target: δ-catenin peptide PASPDSWV-COOH; assay: SPR (BIAcore)
[2] = target: ARVCF peptide PQPVDSWV-COOH (eight-residue motif corresponding to the ARVCF C-terminus); assay: SPR (BIAcore)
[3] = target: ARVCF peptide PQPVDSWV-COOH (eight-residue motif corresponding to the ARVCF C-terminus); assay: IC50 for the ARVCF peptide; method not stated with the table
[4] = target: δ-catenin peptide PASPDSWV-COOH; assay: SPR (BIAcore), column δ-Catenin; number at the right of panel F (off rate per paragraph 112), unit from the column head of Table 4
[5] = target: δ-catenin peptide PASPDSWV-COOH; assay: SPR
[6] = target: ARVCF peptide PQPVDSWV-COOH (eight-residue motif corresponding to the ARVCF C-terminus); assay: SPR
[7] = target: δ-catenin peptide PASPDSWV-COOH; assay: SPR, ratio of Kd
[8] = target: ARVCF peptide PQPVDSWV-COOH (eight-residue motif corresponding to the ARVCF C-terminus); assay: SPR, ratio of Kd
[9] = target: δ-catenin peptide PASPDSWV-COOH; assay: SPR (BIAcore), column δ-Catenin; number at the left of panel F (on rate per paragraph 112), unit from the column head of Table 4
[10] = target: SH2 domain of human Grb2 (human), P62993; assay: panel E, competition phage ELISA: wtSH2 (Grb2-SH2) phages incubated with free pY1208 peptide (0 to about 2200 nM), phages not bound to the free peptide captured and detected
Sequence of SH2 domain of human Grb2 (human), P62993 (P62993 56-153 limits assumed): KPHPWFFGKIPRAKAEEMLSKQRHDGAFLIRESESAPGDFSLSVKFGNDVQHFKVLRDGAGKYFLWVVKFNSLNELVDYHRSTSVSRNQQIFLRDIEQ

[11] = target: δ-catenin peptide PASPDSWV-COOH; assay: SPR, ratio of Kd; ratio Kd(δ-catenin)/Kd(ARVCF) derived from the same SPR values, not a separate measurement
[12] = target: δ-catenin peptide PASPDSWV-COOH; assay: SPR (BIAcore); SPR, soluble ePDZ-b; only a lower bound on Kd (very weak binding); same conditions as the other rows
[13] = target: ARVCF peptide with Ala substitution at position -4; assay: SPR, Ala scan of the ARVCF peptide
[14] = target: SUMO-ARVCF fusion protein (yeast); assay: SPR, equilibrium mode, target peptide fused to yeast SUMO

B1: enhanced PDZ-a (designed binder)
chain: MKHHHHHHHHHHSSDYKDDDDKGENLYFQGSPELGFSISGGVGGRGNPFRPDDDGIFVTRVQPEGPASKLLQPGDKIIQANGYSFINIEHGQAVSLLKTFQNTVELIIVREVGNGAKQEIRVRVEKDGGSGGVSSVPTNLEVVAATPTSLLISWDASYYGVSYYRITYGETGGNSPVQEFTVPYSSSTATISGLKPGVDYTITVYAYSDYYGSHHYSPISINYRT
- Kd [1]: 430 nM
- Kd [2]: 56 nM
- IC50 [3]: 40 nM
- koff [4]: 0.11 s⁻¹
- Kd [5]: 429 nM
- Kd [6]: 56 nM
- koff [6]: 0.015 s⁻¹
- kon [6]: 290000 M⁻¹ s⁻¹
- Specificity Index (Kd for δ-catenin / Kd for ARVCF) [7]: 8 fold
- Affinity Enhancement (Kd of cpPDZFN for ARVCF / Kd of the clamp) [8]: 520 fold
- kon [9]: 250000 M⁻¹ s⁻¹

Binder: NEPLYLNTFANTC (modifications not checked) [peptide corresponding to residues 1204-1216 of ErbB4 receptor (pY1208)]
- IC50 [10]: 120 nM

B2: enhanced PDZ-b (designed binder)
chain: MKHHHHHHHHHHSSDYKDDDDKGENLYFQGSPELGFSISGGVGGRGNPFRPDDDGIFVTRVQPEGPASKLLQPGDKIIQANGYSFINIEHGQAVSLLKTFQNTVELIIVREVGNGAKQEIRVRVEKDGGSGGVSSVPTNLEVVAATPTSLLISWDAYYDSHVSYYRITYGETGGNSPVQEFTVPGSKSTATISGLKPGVDYTITVYAHYNYHYYSSPISINYRT
- Kd [2]: 56 nM
- IC50 [3]: 59 nM
- Kd [6]: 56 nM
- koff [6]: 0.011 s⁻¹
- kon [6]: 190000 M⁻¹ s⁻¹
- Specificity Index (Kd for δ-catenin / Kd for ARVCF) [11]: > 178 fold
- Affinity Enhancement (Kd of cpPDZFN for ARVCF / Kd of the clamp) [8]: 520 fold
- Kd [12]: > 10000 nM

B3: ePDZ-b1 (designed binder)
chain: MKHHHHHHHHHHSSDYKDDDDKGENLYFQGSPELGFSISGGVGGRGNPFRPDDDGIFVTRVQPEGPASKLLQPGDKIIQANGYSFINIEHGQAVSLLKTFQNTVELIIVREVGNGAKQEIRVRVEKDGGSGGVSSVPTNLEVVAATPTSLLISWDAYRELPVSYYRITYGETGGNSPVQEFTVPGSKSTATISGLKPGVDYTITVYAHYNYHYYSSPISINYRT
- fold reduction in affinity against the wild-type ARVCF peptide [13]: > 200 fold
- Kd [6]: 5 nM
- koff [6]: < 0.00037 s⁻¹
- kon [6]: 73000 M⁻¹ s⁻¹
- Specificity Index (Kd for δ-catenin / Kd for ARVCF) [7]: > 2000 fold
- Affinity Enhancement (Kd of cpPDZFN for ARVCF / Kd of the clamp) [8]: 4960 fold

B4: circularly permutated PDZ domain (designed binder)
chain: PELGFSISGGVGGRGNPFRPDDDGIFVTRVQPEGPASKLLQPGDKIIQANGYSFINIEHGQAVSLLKTFQNTVELIIVREVGNGAKQEIRVRVEKD
- Kd [14]: 11000 nM
